US20220089735A1 (SUZHOU KANOVA BIOPHARMACEUTICAL, published 2022)

T1: human B7S1-his (Sinobiological, cat#10738-H08H-100) (human, UniProt Q7Z7D3 25-259)
T1 construct: extracellular domain; Bought protein; also called human B7S1 extracellular domain; B7-H4; not shown: His tag
T1 sequence (looked up): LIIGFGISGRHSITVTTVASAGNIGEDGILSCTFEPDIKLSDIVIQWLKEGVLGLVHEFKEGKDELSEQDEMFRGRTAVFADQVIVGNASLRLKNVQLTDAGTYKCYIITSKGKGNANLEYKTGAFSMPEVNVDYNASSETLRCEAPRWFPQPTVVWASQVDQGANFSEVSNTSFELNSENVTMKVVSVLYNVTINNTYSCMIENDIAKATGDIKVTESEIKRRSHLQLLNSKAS

T2: mouse B7S1-his (R&D system, cat#4206-B7-100) (mouse, UniProt Q7TSP5 29-256)
T2 construct: Bought protein; not shown: His tag
T2 sequence (looked up): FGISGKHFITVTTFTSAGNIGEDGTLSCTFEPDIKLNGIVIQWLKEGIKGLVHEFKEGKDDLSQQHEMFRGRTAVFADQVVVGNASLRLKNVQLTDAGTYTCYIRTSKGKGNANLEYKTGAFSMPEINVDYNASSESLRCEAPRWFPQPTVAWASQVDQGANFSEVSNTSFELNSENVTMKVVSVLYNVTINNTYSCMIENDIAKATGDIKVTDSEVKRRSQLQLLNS

T3: human B7S1 (NCBI Reference Sequence: NP_078902.2) expressed on a cell surface (human, UniProt Q7Z7D3 25-282)
T3 construct: whole, on cells; the assay field says which cells were used; also called B7S1 overexpressed on cell surface; B7S1 transfected BaF3 cell line
T3 sequence (looked up): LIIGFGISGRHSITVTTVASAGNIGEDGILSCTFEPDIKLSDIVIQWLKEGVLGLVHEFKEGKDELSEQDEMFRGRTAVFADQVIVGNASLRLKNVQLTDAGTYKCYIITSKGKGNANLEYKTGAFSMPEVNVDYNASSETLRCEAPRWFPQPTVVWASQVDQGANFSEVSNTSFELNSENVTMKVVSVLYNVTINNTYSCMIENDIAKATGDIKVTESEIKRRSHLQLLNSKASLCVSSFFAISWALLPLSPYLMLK

B1: humanized anti-B7S1 antibody VH1-5/VL4-5 (antibody, V domains shown)
VH: QVQLVQSGAEVKKPGASVKVSCKASGYTFTSYWMHWVKQAPGQGLEWIAAIYPGNSDTDYNQKFKGKAKITAVTSTSTAYMELSSLRSEDTAVYYCTTTVAHYFDYWGQGTMVTVSS
VL: EIVMTQSPATLSLSPGERATLTCKASQDVSFAVAWYQQKPGQAPKLLISSASYRYTGVPDRFSGSGSGTDFTLTISSLEPEDFAVYYCQQHYNTPLTFGGGTKVEIK
notes: Tested as a whole antibody with a human Fc (detected with anti-human IgG, Fc capture in SPR)
B2: humanized anti-B7S1 antibody VH1-4/VL4-5 (antibody, V domains shown)
VH: QVQLVQSGAEVKKPGASVKVSCKASGYTFTSYWMHWVRQAPGQGLEWIAAIYPGNSDTDYNQKFKGKAKITAVTSTSTVYMELSSLRSEDTAVYYCTTTVAHYFDYWGQGTMVTVSS
VL: EIVMTQSPATLSLSPGERATLTCKASQDVSFAVAWYQQKPGQAPKLLISSASYRYTGVPDRFSGSGSGTDFTLTISSLEPEDFAVYYCQQHYNTPLTFGGGTKVEIK
notes: as for B1
B3: humanized anti-B7S1 antibody VH1-5/VL4-4 (antibody, V domains shown)
VH: QVQLVQSGAEVKKPGASVKVSCKASGYTFTSYWMHWVKQAPGQGLEWIAAIYPGNSDTDYNQKFKGKAKITAVTSTSTAYMELSSLRSEDTAVYYCTTTVAHYFDYWGQGTMVTVSS
VL: EIVLTQSPATLSLSPGERATLSCKASQDVSFAVAWYQQKPGQAPRLLISSASYRYTGVPDRFSGSGSGTDFTLTISSLEPEDFAVYYCQQHYNTPLTFGGGTKVEIK
notes: as for B1

Columns and labels:
[1] = molecular target: T1, human B7S1-his (Sinobiological, …); assay: ELISA, antigen coated on plate
Experimental: (§1) In order to test humanized anti-B7S1 antibody binding affinity, an ELISA analysis was carried out. 2 μg/ml of human B7S1-his (Sinobiological, cat#10738-H08H-100), mouse B7S1-his (R&D system, cat#4206-B7-100), and cynomolgus B7S1 extracellular domain (Leu25-Ser259, NCBI Reference Sequence: XP_005542249.1) were coated on MaxiSorp 96-well plates (NUNC, 449824) in 0.5M carbonate/bicarbonate buffer, pH9.6, incubated at 4° C. over night. Coated plates were blocked with skimmed milk (5%, in PBST) for 1h. Humanized anti-B7S1 antibodies were diluted and added to the plates, and incubated for 2h at room temperature. Washed three times with PBST (lx PBS with 0.05% tween-20) to eliminate un-bounded antibodies. Goat anti-Human IgG-HRP (Easybio, BE0122, 1:5000 in PBS) was added and incubated for 1h. Washed three times with PBST (lx PBS with 0.05% tween-20) to eliminate un-bounded antibodies. TMB (eBioscience, 00-4201-56) was added (50 ul/well) for color rendering and stopped by 2N H₂SO₄ (50 ul/well). Optical density was measured at 450 nm and 570 nm.

[2] = molecular target: T2, mouse B7S1-his (R&D system, …); assay: ELISA, antigen coated on plate
Experimental: as §1

[3] = molecular target: T4, cynomolgus B7S1 extracellular domain (Leu25-Ser259, NCBI Reference Sequence: XP_005542249.1) (cynomolgus monkey); assay: ELISA, antigen coated on plate
T4 construct: range 25-259; No tag or fusion partner is stated; also called cynomolgus monkey B7S1
Experimental: as §1

[4] = molecular target: T3, human B7S1 (NCBI Reference Sequence: …); assay: flow cytometry, LPS-stimulated human PBMCs
Experimental: (§2) Peripheral blood mononuclear cells (PBMCs) contain monocytes which under stimulation would up-regulate B7S1 expression on cell surface. This example is to evaluate humanized anti-B7S1 antibody binding affinity on monocytes. Human buffy coat was diluted with PBS to according volume as twice as Ficoll (GE, 17-1440-02). The diluted buffy coat was layered gently on top of Ficoll and centrifuged at 2500 rpm for 40 min at 20° C. without brake. Carefully draw off PBMCs layer in between Ficoll and its transparent supernatant. PBS was added to 5 volumes of PBMCs and centrifuged at 1200 rpm for 10 min at 20° C. Discard supernatant and wash with PBS again. To eliminate platelets, centrifuge at 900 rpm for 8 min at 20° C. PBMCs were resuspended with culture medium (RPMI-1640 with 10% FBS and 1% PS), counted and aliquot to 96-well plate (5×10\hat{ }5 cells/well) with LPS added (100 ng/ml). After 24h incubation, cells were washed with PBS twice. For live/dead stain, LIVE/DEAD® Fixable Aqua Dead Cell Stain Kit (Life technologies, L34957) was applied (1:1000 in PBS, 100 ul/well) to cells, and incubated at 4° C. for 10 min FACS buffer (2% FBS in PBS, 100 ul/well) was added to each well to terminate staining. Centrifuge (1200 rpm, 5 min) to discard supernatant and wash with FACS buffer once. Humanized anti-B7S1 antibodies were diluted in FACS buffer to according concentrations and added to each well (100 ul/well). Cells were incubated at 4° C. for 30 min, and then, washed twice with FACS buffer. […] Cells were incubated at 4° C. for 30 min, and then, washed twice with FACS buffer. Cells were tested on flow cytometry. […] The mAbs meet the requirements for binding profile of antibody drugs.

[5] = molecular target: T1, human B7S1-his (Sinobiological, …); assay: SPR, Biacore 8K, antibody captured by Fc, B7S1 as analyte
Experimental: FIG. 1. Experimental results of Surface Plasmon Resonance (SPR) binding analysis using Biacore 8K. The data of dissociation (kd) and association (ka) rate constants were obtained using Biacore 8K evaluation software. The equilibrium dissociation constants (KD) were calculated from the ratio of kd over ka.
In addition, the affinity of the above mAbs was further analyzed by Surface Plasmon Resonance (SPR) binding analysis using Biacore 8K. SPR is the resonant oscillation of conduction electrons at the interface between negative and positive permittivity material stimulated by incident light. Antibodies were immobilized on the sensor chip through Fc capture method. Human B7S1 (Sinobiological, cat#10738-H08H-100) was used as the analyte. The data of dissociation (kd) and association (ka) rate constants were obtained using Biacore 8K evaluation software. The equilibrium dissociation constants (KD) were calculated from the ratio of kd over ka.

[6] = molecular target: T3, human B7S1 (NCBI Reference Sequence: …); assay: flow cytometry on LPS-stimulated human PBMCs (percentage of live PBMC stained), detection with Alexa Fluor 594 goat anti-human IgG
Experimental: as §2

[7] = molecular target: T3, human B7S1 (NCBI Reference Sequence: …); assay: flow cytometry (mean fluorescence intensity) on BaF3 cells expressing human B7S1, detection with Alexa Fluor 594 goat anti-human IgG
Experimental: To evaluate anti-B7S1 antibody binding affinity on cell surface over expressing B7S1, human B7S1 (NCBI Reference Sequence: NP_078902.2) was constructed on BaF3 cell line. The cells were washed with PBS and aliquot to 96-well U-bottom plate with a cell density of 5×10\hat{ }5 cells/well. For live/dead stain, LIVE/DEAD® Fixable Aqua Dead Cell Stain Kit (Life technologies, L34957) was applied (1:1000 in PBS, 100 ul/well) to cells, and incubated at 4° C. for 10 min FACS buffer (2% FBS in PBS, 100 ul/well) was added to each well to terminate staining. Centrifuge (1200 rpm, 5 min) to discard supernatant and wash with FACS buffer once. Humanized anti-B7S1 antibodies were diluted in FACS buffer to according concentrations and added to each well (100 ul/well). Cells were incubated at 4° C. for 30 min, and then, washed twice with FACS buffer. […] Cells were incubated at 4° C. for 30 min, and then, washed twice with FACS buffer. […] For example, the binding EC₅₀ of the tested mAbs is in the sub nM range.

Binder	EC50 [1] [nM]	EC50 [2] [nM]	EC50 [3] [nM]	EC50 [4] [nM]	Kd [5] [nM]	koff [5] [s⁻¹]	kon [5] [M⁻¹ s⁻¹]	EC50 [6] [nM]	EC50 [7] [nM]
B1	0.52	1.09	8.09	< 3	3.24	0.000265	81700	2.6	3.8
B2	0.25	1.59	7.82	< 3	4.08	0.000436	107000	2.4	4.2
B3	0.4	0.88	3.26	< 3	1.86	0.000187	101000	3	3.1
